Measurements: the supplement of paper PMC7877785
± gives the uncertainty stated by the source.

Assay: self-splicing fitness, log relative to wild type (ln ratio); higher = more splicing; Tetrahymena group I intron in knt gene, E. coli kanamycin selection, DiMSum; sequences stand for … in CUCUCU…GGAGGGAAAAGUUAUCAGGCAUGCACCUGGUAGCUAGUCUUUAAACCAAUAGAUUGCAUCGGUUUAAAAGGCAAGACCGUCAAAUUGCGGGAAAGGGGUCAACAGCCGUUCAGUACCAAGUCUCAGGGGAAACUUUGAGAUGGCCUUGCAAAGGGUAUGGUAAUAAGCUGACGGACAUGGUCCUAACCACGCAGCCAAGUCCUAAGUCAACAGAUCUUCUGUUGAUAUGGAUGCAGUUCACAGACUAAAUGUCGGUCGGGGAAGAUGUAUUCUUCUCAUAAGAUAUAGUCGGACCUCUCCUUAAUGGGAGCUAGCGGAUGAAGUGAUGCAACACUGGAGCCGCUGGGAACUAAUUUGUAUGCGAAAGUAUAUUGAUUAGUUUUGGAGUACUCGUGGUCG
Summary of the method: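 Fitness was computed with DiMSum as the error-weighted combination of replicate fold changes, kanamycin versus none, each normalised to wild type. The library randomised all eight intron nucleotides of the P1ex region, with the intron placed in the knt kanamycin-resistance gene on pET-22b(+) in E. coli BL21(DE3). Six replicate transformations were grown overnight at 37°C or 30°C on LB agar with or without 25 μg/mL kanamycin, plus 100 μg/mL carbenicillin, 50 μM IPTG and 0.2% rhamnose. Pooled colonies were amplicon-sequenced on an Illumina HiSeq 2500.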

Sequence	self-splicing fitness (ln) (30 °C)	self-splicing fitness (ln) (37 °C)
GUGGAGCAAUAUUACGGAGC	-2.43 ± 0.2	-0.177 ± 0.25
GUGGAGCAAUAUUACGGCAC	-1.39 ± 0.19	-0.386 ± 0.31
GUGGAGCAAUAUUACGGUGA	–	-1.81 ± 0.49
GUGGAGCAAUAUUACGUAAG	-3.04 ± 0.26	-1.21 ± 0.47
GUGGAGCAAUAUUACGUAGC	0.305 ± 0.33	–
GUGGAGCAAUAUUACGUAGU	-2.93 ± 0.24	-0.993 ± 0.27
GUGGAGCAAUAUUACGUCAC	-3.5 ± 0.39	-1.99 ± 0.26
GUGGAGCAAUAUUACGUCCG	-3.12 ± 0.33	-1.01 ± 0.33
GUGGAGCAAUAUUACGUCGG	-3.08 ± 0.22	-2.35 ± 0.2
GUGGAGCAAUAUUACGUGAC	–	1.74 ± 0.35
GUGGAGCAAUAUUACGUGGU	-2.9 ± 0.27	-2.51 ± 0.28
GUGGAGCAAUAUUACGUUCA	-1.02 ± 0.11	-0.668 ± 0.11
GUGUAGCAAUAUUACGAAGA	–	-1.38 ± 0.39
GUGUAGCAAUAUUACGAAGU	-2.86 ± 0.34	-1.67 ± 0.25
GUGUAGCAAUAUUACGACUA	-0.34 ± 0.11	0.0605 ± 0.12
GUGUAGCAAUAUUACGAGAC	-3.58 ± 0.42	-2.4 ± 0.16
GUGUAGCAAUAUUACGAGGU	-2.33 ± 0.44	-1.61 ± 0.49
GUGUAGCAAUAUUACGAUCG	-1.94 ± 0.22	0.634 ± 0.17
GUGUAGCAAUAUUACGAUUU	-1.98 ± 0.19	0.0419 ± 0.25
GUGUAGCAAUAUUACGCAGG	–	-2.3 ± 0.32
GUGUAGCAAUAUUACGCCAU	-3.15 ± 0.29	-1.51 ± 0.22
GUGUAGCAAUAUUACGCCUG	-3.94 ± 0.25	-0.863 ± 0.13
GUGUAGCAAUAUUACGCCUU	-2.63 ± 0.39	-2.56 ± 0.37
GUGUAGCAAUAUUACGCGAU	-3.21 ± 0.26	-1.96 ± 0.26
GUGUAGCAAUAUUACGCGCU	–	-1.27 ± 0.18

Sequence	self-splicing fitness (ln) (30 °C)	self-splicing fitness (ln) (37 °C)
GUGUAGCAAUAUUACGCGGU	-2.85 ± 0.34	-0.66 ± 0.41
GUGUAGCAAUAUUACGCUCA	-0.291 ± 0.21	0.47 ± 0.33
GUGUAGCAAUAUUACGCUGU	-2.96 ± 0.2	-3.45 ± 0.39
GUGUAGCAAUAUUACGCUUA	-1.45 ± 0.29	0.408 ± 0.25
GUGUAGCAAUAUUACGGGAG	-3.55 ± 0.2	-2.88 ± 0.18
GUGUAGCAAUAUUACGGGGA	-1.9 ± 0.28	-2.41 ± 0.25
GUGUAGCAAUAUUACGGGUG	-2.72 ± 0.14	-1.13 ± 0.13
GUGUAGCAAUAUUACGGUAC	-2.1 ± 0.22	-1.43 ± 0.25
GUGUAGCAAUAUUACGGUUC	-1.04 ± 0.13	-0.373 ± 0.16
GUGUAGCAAUAUUACGUAUG	-3.21 ± 0.23	-2.78 ± 0.27
GUGUAGCAAUAUUACGUCGC	-2.48 ± 0.26	–
GUGUAGCAAUAUUACGUCUU	0.202 ± 0.18	-0.00398 ± 0.18
GUGUAGCAAUAUUACGUUUA	-2.51 ± 0.23	-2.01 ± 0.15
GUUAAGCAAUAUUACGAAAA	-1.13 ± 0.27	-2.1 ± 0.24
GUUAAGCAAUAUUACGAGGU	–	-2.51 ± 0.34
GUUAAGCAAUAUUACGAGUG	-2.69 ± 0.14	-1.84 ± 0.16
GUUAAGCAAUAUUACGAUGG	–	-1.77 ± 0.23
GUUAAGCAAUAUUACGCAGU	-1.74 ± 0.24	-2.55 ± 0.23
GUUAAGCAAUAUUACGCCAG	-3.1 ± 0.23	-2.75 ± 0.28
GUUAAGCAAUAUUACGCCUA	-0.752 ± 0.11	-0.139 ± 0.11
GUUAAGCAAUAUUACGCGGU	-3.3 ± 0.22	-2.65 ± 0.2
GUUAAGCAAUAUUACGCGUG	-0.781 ± 0.1	-0.78 ± 0.099
GUUAAGCAAUAUUACGCUAA	-2.35 ± 0.14	-1.54 ± 0.15
GUUAAGCAAUAUUACGGCAA	0.045 ± 0.2	-0.394 ± 0.22
GUUAAGCAAUAUUACGGCUC	0.46 ± 0.2	-0.6 ± 0.21

Sequence	self-splicing fitness (ln) (30 °C)	self-splicing fitness (ln) (37 °C)
GUUAAGCAAUAUUACGGGAG	-3.17 ± 0.14	-1.63 ± 0.097
GUUAAGCAAUAUUACGGUUU	-0.85 ± 0.094	-1.5 ± 0.12
GUUAAGCAAUAUUACGUAGC	-2.84 ± 0.19	-1.86 ± 0.26
GUUAAGCAAUAUUACGUAGU	-2.06 ± 0.16	-0.895 ± 0.14
GUUAAGCAAUAUUACGUCAU	-1.5 ± 0.1	-0.179 ± 0.12
GUUAAGCAAUAUUACGUGUA	-2.09 ± 0.098	-0.751 ± 0.091
GUUAAGCAAUAUUACGUUAG	-2.47 ± 0.13	-1.32 ± 0.14
GUUCAGCAAUAUUACGAAAC	-1.48 ± 0.23	-0.734 ± 0.22
GUUCAGCAAUAUUACGAAGA	-0.456 ± 0.086	0.147 ± 0.1
GUUCAGCAAUAUUACGAAGG	-1.55 ± 0.2	-0.421 ± 0.23
GUUCAGCAAUAUUACGAGCG	-2.03 ± 0.13	-1.31 ± 0.15
GUUCAGCAAUAUUACGAGCU	-3.34 ± 0.32	-3.72 ± 0.39
GUUCAGCAAUAUUACGAGGA	-3.54 ± 0.27	-2.18 ± 0.26
GUUCAGCAAUAUUACGAUCC	-1.37 ± 0.12	-1.05 ± 0.14
GUUCAGCAAUAUUACGCAAG	-0.984 ± 0.093	-0.654 ± 0.12
GUUCAGCAAUAUUACGCAUU	-0.22 ± 0.06	0.414 ± 0.078
GUUCAGCAAUAUUACGCGGC	–	-2.94 ± 0.43
GUUCAGCAAUAUUACGGACC	–	-2.8 ± 0.38
GUUCAGCAAUAUUACGGUCG	-0.812 ± 0.099	-0.788 ± 0.15
GUUCAGCAAUAUUACGUAUC	-0.532 ± 0.089	-0.756 ± 0.1
GUUCAGCAAUAUUACGUCCG	0.0188 ± 0.43	–
GUUCAGCAAUAUUACGUCGA	-0.842 ± 0.15	-0.398 ± 0.13
GUUCAGCAAUAUUACGUGAU	-0.367 ± 0.049	0.43 ± 0.068
GUUCAGCAAUAUUACGUGGC	-2.08 ± 0.1	-2.25 ± 0.16
GUUCAGCAAUAUUACGUGUU	-1.84 ± 0.08	0.0147 ± 0.089

Sequence	self-splicing fitness (ln) (30 °C)	self-splicing fitness (ln) (37 °C)
GUUGAGCAAUAUUACGAACU	–	-1.61 ± 0.27
GUUGAGCAAUAUUACGACCC	–	-0.607 ± 0.49
GUUGAGCAAUAUUACGACGG	-3.52 ± 0.3	-1.12 ± 0.28
GUUGAGCAAUAUUACGAGUC	-3.09 ± 0.28	-0.0995 ± 0.16
GUUGAGCAAUAUUACGAGUG	-2.98 ± 0.19	-3.28 ± 0.28
GUUGAGCAAUAUUACGAUUC	-0.993 ± 0.12	0.00124 ± 0.2
GUUGAGCAAUAUUACGCCCU	-1 ± 0.19	0.108 ± 0.25
GUUGAGCAAUAUUACGCCUU	-2.32 ± 0.28	-1.78 ± 0.36
GUUGAGCAAUAUUACGGACU	-3.15 ± 0.24	-3.49 ± 0.34
GUUGAGCAAUAUUACGGCAC	-0.787 ± 0.17	-0.486 ± 0.2
GUUGAGCAAUAUUACGGGCU	-2.65 ± 0.26	-2.23 ± 0.49
GUUGAGCAAUAUUACGGGGG	-3.87 ± 0.31	-2.34 ± 0.25
GUUGAGCAAUAUUACGGUAU	-4.2 ± 0.23	-1.71 ± 0.13
GUUGAGCAAUAUUACGUAAA	-2.7 ± 0.2	-1.73 ± 0.19
GUUGAGCAAUAUUACGUAUG	-2.76 ± 0.34	-1.52 ± 0.29
GUUGAGCAAUAUUACGUUGC	-2.03 ± 0.42	–
GUUUAGCAAUAUUACGAAGG	-2.93 ± 0.38	-1.37 ± 0.26
GUUUAGCAAUAUUACGAAUG	-1.2 ± 0.18	-0.733 ± 0.18
GUUUAGCAAUAUUACGACAA	-2.09 ± 0.21	-0.807 ± 0.19
GUUUAGCAAUAUUACGACGC	0.0175 ± 0.18	-0.0772 ± 0.24
GUUUAGCAAUAUUACGACGG	-2.88 ± 0.25	-3.5 ± 0.47
GUUUAGCAAUAUUACGAUCG	-1.61 ± 0.13	-0.512 ± 0.19
GUUUAGCAAUAUUACGAUGA	-2.41 ± 0.21	-1.39 ± 0.14
GUUUAGCAAUAUUACGCACG	-2.48 ± 0.44	–
GUUUAGCAAUAUUACGCACU	-1.41 ± 0.15	-0.128 ± 0.15
